What was measured:
Assay in all cases: cell-based or functional assay
[1] = biological target: HIV-1 Env of pseudovirus Q461.e2 (HIV-1)
[2] = biological target: HIV-1 Env of pseudovirus ZM249M.PL1 (HIV-1)
[3] = biological target: HIV-1 Env of pseudovirus AC10.0.29 (HIV-1)
[4] = biological target: HIV-1 Env of pseudovirus T251-18 (HIV-1)
[5] = biological target: HIV-1 Env of pseudovirus 0815.v3.c3 (HIV-1)
[6] = biological target: HIV-1 Env of pseudovirus ZM135M.PL10a (HIV-1)
[7] = biological target: HIV-1 Env of pseudovirus WITO4160.33 (HIV-1)
[8] = biological target: HIV-1 Env of pseudovirus ZM214M.PL15 (HIV-1)
[9] = biological target: HIV-1 Env of pseudovirus Ce0682_E4 (HIV-1)
[10] = biological target: HIV-1 Env of pseudovirus Du172.17 (HIV-1)
[11] = biological target: HIV-1 Env of pseudovirus 6811.v7.c18 (HIV-1)
[12] = biological target: HIV-1 Env of pseudovirus Ce0393_C3 (HIV-1)
[13] = biological target: HIV-1 Env of pseudovirus Ce704809221_1B3 (HIV-1)
[14] = biological target: HIV-1 Env of pseudovirus ZM197M.PB7 (HIV-1)
[15] = biological target: HIV-1 Env of pseudovirus CNE21 (HIV-1)
[16] = biological target: HIV-1 Env of pseudovirus X2131_C1_B5 (HIV-1)
[17] = biological target: HIV-1 Env of pseudovirus T257-31 (HIV-1)
[18] = biological target: HIV-1 Env of pseudovirus 928-28 (HIV-1)
[19] = biological target: HIV-1 Env of pseudovirus 1056_10_TA11_1826 (HIV-1)
[20] = biological target: HIV-1 Env of pseudovirus TRJO4551.58 (HIV-1)
[21] = biological target: HIV-1 Env of pseudovirus X1193_c1 (HIV-1)
[22] = biological target: HIV-1 Env of pseudovirus 6540.v4.c1 (HIV-1)
[23] = biological target: HIV-1 Env of pseudovirus CNE52 (HIV-1)
[24] = biological target: HIV-1 Env of pseudovirus Ce2060_G9 (HIV-1)
[25] = biological target: HIV-1 Env of pseudovirus 9004SS_A3_4 (HIV-1)
[26] = biological target: HIV-1 Env of pseudovirus C2101.c01 (HIV-1)
[27] = biological target: HIV-1 Env of pseudovirus X2088_c9 (HIV-1)
[28] = biological target: HIV-1 Env of pseudovirus THRO4156.18 (HIV-1)
[29] = biological target: HIV-1 Env of pseudovirus 246F C1G (HIV-1)
[30] = biological target: HIV-1 Env of pseudovirus T250-4 (HIV-1)
[31] = biological target: HIV-1 Env of pseudovirus 191084 B7-19 (HIV-1)
[32] = biological target: HIV-1 Env of pseudovirus CNE20 (HIV-1)
[33] = biological target: HIV-1 Env of pseudovirus 3301.v1.c24 (HIV-1)
[34] = biological target: HIV-1 Env of pseudovirus CNE5 (HIV-1)
[35] = biological target: HIV-1 Env of pseudovirus CAP210.2.00.E8 (HIV-1)
[36] = biological target: HIV-1 Env of pseudovirus T255-34 (HIV-1)
[37] = biological target: HIV-1 Env of pseudovirus 7030102001E5(Rev-) (HIV-1)

NIH 45-46 (antibody)
neutralization IC50 [1]: 0.06 µg/mL
neutralization IC80 [1]: 0.32 µg/mL
neutralization IC50 [2]: 0.02 µg/mL
neutralization IC80 [2]: 0.06 µg/mL
neutralization IC50 [3]: 0.42 µg/mL
neutralization IC80 [3]: 1.49 µg/mL
IC50, titer in TZM.bl cells [4]: 5.26 µg/mL
IC80, titer in TZM.bl cells [4]: 5.26 µg/mL
IC50, titer in TZM.bl cells [5]: 0.01 µg/mL
IC80, titer in TZM.bl cells [5]: 0.03 µg/mL
neutralization IC50 [6]: 0.36 µg/mL
neutralization IC80 [6]: 3.11 µg/mL
neutralization IC50 [7]: 0.01 µg/mL
neutralization IC80 [7]: 0.08 µg/mL
neutralization IC50 [8]: 0.05 µg/mL
neutralization IC80 [8]: 0.39 µg/mL
neutralization IC50 [9]: 0.07 µg/mL
neutralization IC80 [9]: 0.25 µg/mL
neutralization IC50 [10]: > 30 µg/mL
neutralization IC80 [10]: > 30 µg/mL
IC50, titer in TZM.bl cells [11]: 0.03 µg/mL
IC80, titer in TZM.bl cells [11]: 0.13 µg/mL
neutralization IC50 [12]: 0.32 µg/mL
neutralization IC80 [12]: 1.07 µg/mL
neutralization IC50 [13]: 0.15 µg/mL
neutralization IC80 [13]: 0.88 µg/mL
neutralization IC50 [14]: 0.14 µg/mL
neutralization IC80 [14]: 0.64 µg/mL
neutralization IC50 [15]: 7.53 µg/mL
neutralization IC80 [15]: > 50 µg/mL
IC50, titer in TZM.bl cells [16]: 0.2 µg/mL
IC80, titer in TZM.bl cells [16]: 0.9 µg/mL
neutralization IC50 [17]: 0.23 µg/mL
neutralization IC80 [17]: 1.11 µg/mL
neutralization IC50 [18]: 0.1 µg/mL
neutralization IC80 [18]: 0.39 µg/mL
neutralization IC50 [19]: 0.12 µg/mL
neutralization IC80 [19]: 0.59 µg/mL
neutralization IC50 [20]: 0.01 µg/mL
neutralization IC80 [20]: 0.05 µg/mL
IC50, titer in TZM.bl cells [21]: 0.04 µg/mL
IC80, titer in TZM.bl cells [21]: 0.16 µg/mL
IC50, titer in TZM.bl cells [22]: > 50 µg/mL
IC80, titer in TZM.bl cells [22]: > 50 µg/mL
neutralization IC50 [23]: 0.03 µg/mL
neutralization IC80 [23]: 0.12 µg/mL
neutralization IC50 [24]: 0.14 µg/mL
neutralization IC80 [24]: 0.48 µg/mL
neutralization IC50 [25]: 0.18 µg/mL
neutralization IC80 [25]: 0.65 µg/mL
IC50, titer in TZM.bl cells [26]: 12.8 µg/mL
IC80, titer in TZM.bl cells [26]: > 50 µg/mL
IC50, titer in TZM.bl cells [27]: > 50 µg/mL
IC80, titer in TZM.bl cells [27]: > 50 µg/mL
neutralization IC50 [28]: 1.59 µg/mL
neutralization IC80 [28]: 6.02 µg/mL
neutralization IC50 [29]: > 50 µg/mL
neutralization IC80 [29]: > 50 µg/mL
IC50, titer in TZM.bl cells [30]: > 30 µg/mL
IC80, titer in TZM.bl cells [30]: > 30 µg/mL
neutralization IC50 [31]: 0.02 µg/mL
neutralization IC80 [31]: 0.07 µg/mL
neutralization IC50 [32]: 8.71 µg/mL
neutralization IC80 [32]: 47 µg/mL
IC50, titer in TZM.bl cells [33]: 0.01 µg/mL
IC80, titer in TZM.bl cells [33]: 0.03 µg/mL
IC50, titer in TZM.bl cells [34]: 0.09 µg/mL
IC80, titer in TZM.bl cells [34]: 0.41 µg/mL
neutralization IC50 [35]: > 50 µg/mL
neutralization IC80 [35]: > 50 µg/mL
IC50, titer in TZM.bl cells [36]: 0.23 µg/mL
IC80, titer in TZM.bl cells [36]: 2.38 µg/mL
neutralization IC50 [37]: 0.14 µg/mL
neutralization IC80 [37]: 0.63 µg/mL

PGDM1400 (antibody)
IC50 [1]: 0.089 µg/mL
IC80 [1]: 0.572 µg/mL
IC50 [2]: 0.016 µg/mL
IC80 [2]: 0.701 µg/mL
IC50 [3]: 0.105 µg/mL
IC80 [3]: 0.869 µg/mL
IC50, titer in TZM.bl cells [4]: 8.62 µg/mL
IC80, titer in TZM.bl cells [4]: 43.1 µg/mL
IC50, titer in TZM.bl cells [5]: > 50 µg/mL
IC80, titer in TZM.bl cells [5]: > 50 µg/mL
IC50 [6]: > 50 µg/mL
IC80 [6]: > 50 µg/mL
IC50 [7]: < 0.001 µg/mL
IC80 [7]: 0.008 µg/mL
IC50 [8]: > 50 µg/mL
IC80 [8]: > 50 µg/mL
IC50 [9]: 0.01 µg/mL
IC80 [9]: 0.043 µg/mL
IC50 [10]: 5.18 µg/mL
IC80 [10]: 22 µg/mL
IC50, titer in TZM.bl cells [11]: > 50 µg/mL
IC80, titer in TZM.bl cells [11]: > 50 µg/mL
IC50 [12]: 0.015 µg/mL
IC80 [12]: 0.044 µg/mL
IC50 [13]: 0.28 µg/mL
IC80 [13]: 1.1 µg/mL
IC50 [14]: 0.063 µg/mL
IC80 [14]: 0.285 µg/mL
IC50 [15]: < 0.001 µg/mL
IC80 [15]: 0.002 µg/mL
IC50, titer in TZM.bl cells [16]: 0.128 µg/mL
IC80, titer in TZM.bl cells [16]: 0.568 µg/mL
IC50 [17]: 0.002 µg/mL
IC80 [17]: 0.031 µg/mL
IC50 [18]: 0.22 µg/mL
IC80 [18]: 1.25 µg/mL
IC50 [19]: 3.26 µg/mL
IC80 [19]: 11.8 µg/mL
IC50 [20]: > 50 µg/mL
IC80 [20]: > 50 µg/mL
IC50, titer in TZM.bl cells [21]: 0.219 µg/mL
IC80, titer in TZM.bl cells [21]: 0.781 µg/mL
IC50, titer in TZM.bl cells [22]: 0.004 µg/mL
IC80, titer in TZM.bl cells [22]: 0.028 µg/mL
IC50 [23]: 1.15 µg/mL
IC80 [23]: 9.97 µg/mL
IC50 [24]: 0.001 µg/mL
IC80 [24]: 0.007 µg/mL
IC50 [25]: < 0.001 µg/mL
IC80 [25]: 0.002 µg/mL
IC50, titer in TZM.bl cells [26]: 0.006 µg/mL
IC80, titer in TZM.bl cells [26]: 0.021 µg/mL
IC50, titer in TZM.bl cells [27]: > 50 µg/mL
IC80, titer in TZM.bl cells [27]: > 50 µg/mL
IC50 [28]: 0.072 µg/mL
IC80 [28]: 0.348 µg/mL
IC50 [29]: > 50 µg/mL
IC80 [29]: > 50 µg/mL
IC50 [30]: < 0.001 µg/mL
IC80 [30]: < 0.001 µg/mL
IC50 [31]: < 0.001 µg/mL
IC80 [31]: 0.007 µg/mL
IC50 [32]: 0.004 µg/mL
IC80 [32]: 0.014 µg/mL
IC50, titer in TZM.bl cells [33]: 0.048 µg/mL
IC80, titer in TZM.bl cells [33]: 0.245 µg/mL
IC50, titer in TZM.bl cells [34]: < 0.001 µg/mL
IC80, titer in TZM.bl cells [34]: < 0.001 µg/mL
IC50 [35]: 0.034 µg/mL
IC80 [35]: 0.514 µg/mL
IC50, titer in TZM.bl cells [36]: 0.654 µg/mL
IC80, titer in TZM.bl cells [36]: > 50 µg/mL
IC50 [37]: > 50 µg/mL
IC80 [37]: > 50 µg/mL
